{
  "source": "paper PMC11446282",
  "system": "PP2A-B55α",
  "test": "Single alanine mutational scan, YFP-tagged interactors immunoprecipitated from HeLa cells, Western blot",
  "format": "binding, human",
  "conditions": "single alanine mutant of YFP-tagged AMOTL2",
  "data": [
    {"molecule": "AMOTL2 L15: AMOTL2, L15 to alanine (protein, UniProt Q9Y2J4 1-779, looked up, variant L15A) Angiomotin-like protein 2: MRTLEDSSGTVLHRAIQEQLRYGNLTETRTLLAIQQQALRGGAGTGGTGSPQASLEILAPEDSQVLQQATRQEPQGQEHQGGENHLAENTLYRLCPQPSKGEELPTYEEAKAHSQYYAAQQAGTRPHAGDRDPRGAPGGSRRQDEALRELRHGHVRSLSERLLQLSLERNGARAPSHMSSSHSFPQLARNQQGPPLRGPPAEGPESRGPPPQYPHVVLAHETTTAVTDPRYRARGSPHFQHAEVRILQAQVPPVFLQQQQQYQYLQQSQEHPPPPHPAALGHGPLSSLSPPAVEGPVSAQASSATSGSAHLAQMEAVLRENARLQRDNERLQRELESSAEKAGRIEKLESEIQRLSEAHESLTRASSKREALEKTMRNKMDSEMRRLQDFNRDLRERLESANRRLASKTQEAQAGSQDMVAKLLAQSYEQQQEQEKLEREMALLRGAIEDQRRRAELLEQALGNAQGRAARAEEELRKKQAYVEKVERLQQALGQLQAACEKREQLELRLRTRLEQELKALRAQQRQAGAPGGSSGSGGSPELSALRLSEQLREKEEQILALEADMTKWEQKYLEERAMRQFAMDAAATAAAQRDTTLIRHSPQPSPSSSFNEGLLTGGHRHQEMESRLKVLHAQILEKDAVIKVLQQRSRRDPGKAIQGSLRPAKSVPSVFAAAAAGTQGWQGLSSSERQTADAPARLTTDRAPTEEPVVTAPPAAHAKHGSRDGSTQTEGPPDSTSTCLPPEPDSLLGCSSSQRAASLDSVATSRVQDLSDMVEILI", "values": [
      {"measurement": "Experimental % binding", "result": 32, "unit": "%"}
    ]},
    {"molecule": "AMOTL2 Q17: AMOTL2, Q17 to alanine (protein, UniProt Q9Y2J4 1-779, looked up, variant Q17A) Angiomotin-like protein 2: MRTLEDSSGTVLHRLIAEQLRYGNLTETRTLLAIQQQALRGGAGTGGTGSPQASLEILAPEDSQVLQQATRQEPQGQEHQGGENHLAENTLYRLCPQPSKGEELPTYEEAKAHSQYYAAQQAGTRPHAGDRDPRGAPGGSRRQDEALRELRHGHVRSLSERLLQLSLERNGARAPSHMSSSHSFPQLARNQQGPPLRGPPAEGPESRGPPPQYPHVVLAHETTTAVTDPRYRARGSPHFQHAEVRILQAQVPPVFLQQQQQYQYLQQSQEHPPPPHPAALGHGPLSSLSPPAVEGPVSAQASSATSGSAHLAQMEAVLRENARLQRDNERLQRELESSAEKAGRIEKLESEIQRLSEAHESLTRASSKREALEKTMRNKMDSEMRRLQDFNRDLRERLESANRRLASKTQEAQAGSQDMVAKLLAQSYEQQQEQEKLEREMALLRGAIEDQRRRAELLEQALGNAQGRAARAEEELRKKQAYVEKVERLQQALGQLQAACEKREQLELRLRTRLEQELKALRAQQRQAGAPGGSSGSGGSPELSALRLSEQLREKEEQILALEADMTKWEQKYLEERAMRQFAMDAAATAAAQRDTTLIRHSPQPSPSSSFNEGLLTGGHRHQEMESRLKVLHAQILEKDAVIKVLQQRSRRDPGKAIQGSLRPAKSVPSVFAAAAAGTQGWQGLSSSERQTADAPARLTTDRAPTEEPVVTAPPAAHAKHGSRDGSTQTEGPPDSTSTCLPPEPDSLLGCSSSQRAASLDSVATSRVQDLSDMVEILI", "values": [
      {"measurement": "Experimental % binding", "result": 143, "unit": "%"}
    ]},
    {"molecule": "AMOTL2 R21: AMOTL2, R21 to alanine (protein, UniProt Q9Y2J4 1-779, looked up, variant R21A) Angiomotin-like protein 2: MRTLEDSSGTVLHRLIQEQLAYGNLTETRTLLAIQQQALRGGAGTGGTGSPQASLEILAPEDSQVLQQATRQEPQGQEHQGGENHLAENTLYRLCPQPSKGEELPTYEEAKAHSQYYAAQQAGTRPHAGDRDPRGAPGGSRRQDEALRELRHGHVRSLSERLLQLSLERNGARAPSHMSSSHSFPQLARNQQGPPLRGPPAEGPESRGPPPQYPHVVLAHETTTAVTDPRYRARGSPHFQHAEVRILQAQVPPVFLQQQQQYQYLQQSQEHPPPPHPAALGHGPLSSLSPPAVEGPVSAQASSATSGSAHLAQMEAVLRENARLQRDNERLQRELESSAEKAGRIEKLESEIQRLSEAHESLTRASSKREALEKTMRNKMDSEMRRLQDFNRDLRERLESANRRLASKTQEAQAGSQDMVAKLLAQSYEQQQEQEKLEREMALLRGAIEDQRRRAELLEQALGNAQGRAARAEEELRKKQAYVEKVERLQQALGQLQAACEKREQLELRLRTRLEQELKALRAQQRQAGAPGGSSGSGGSPELSALRLSEQLREKEEQILALEADMTKWEQKYLEERAMRQFAMDAAATAAAQRDTTLIRHSPQPSPSSSFNEGLLTGGHRHQEMESRLKVLHAQILEKDAVIKVLQQRSRRDPGKAIQGSLRPAKSVPSVFAAAAAGTQGWQGLSSSERQTADAPARLTTDRAPTEEPVVTAPPAAHAKHGSRDGSTQTEGPPDSTSTCLPPEPDSLLGCSSSQRAASLDSVATSRVQDLSDMVEILI", "values": [
      {"measurement": "Experimental % binding", "result": 60, "unit": "%"}
    ]},
    {"molecule": "AMOTL2 Q19: AMOTL2, Q19 to alanine (protein, UniProt Q9Y2J4 1-779, looked up, variant Q19A) Angiomotin-like protein 2: MRTLEDSSGTVLHRLIQEALRYGNLTETRTLLAIQQQALRGGAGTGGTGSPQASLEILAPEDSQVLQQATRQEPQGQEHQGGENHLAENTLYRLCPQPSKGEELPTYEEAKAHSQYYAAQQAGTRPHAGDRDPRGAPGGSRRQDEALRELRHGHVRSLSERLLQLSLERNGARAPSHMSSSHSFPQLARNQQGPPLRGPPAEGPESRGPPPQYPHVVLAHETTTAVTDPRYRARGSPHFQHAEVRILQAQVPPVFLQQQQQYQYLQQSQEHPPPPHPAALGHGPLSSLSPPAVEGPVSAQASSATSGSAHLAQMEAVLRENARLQRDNERLQRELESSAEKAGRIEKLESEIQRLSEAHESLTRASSKREALEKTMRNKMDSEMRRLQDFNRDLRERLESANRRLASKTQEAQAGSQDMVAKLLAQSYEQQQEQEKLEREMALLRGAIEDQRRRAELLEQALGNAQGRAARAEEELRKKQAYVEKVERLQQALGQLQAACEKREQLELRLRTRLEQELKALRAQQRQAGAPGGSSGSGGSPELSALRLSEQLREKEEQILALEADMTKWEQKYLEERAMRQFAMDAAATAAAQRDTTLIRHSPQPSPSSSFNEGLLTGGHRHQEMESRLKVLHAQILEKDAVIKVLQQRSRRDPGKAIQGSLRPAKSVPSVFAAAAAGTQGWQGLSSSERQTADAPARLTTDRAPTEEPVVTAPPAAHAKHGSRDGSTQTEGPPDSTSTCLPPEPDSLLGCSSSQRAASLDSVATSRVQDLSDMVEILI", "values": [
      {"measurement": "Experimental % binding", "result": 120, "unit": "%"}
    ]},
    {"molecule": "AMOTL2 E18: AMOTL2, E18 to alanine (protein, UniProt Q9Y2J4 1-779, looked up, variant E18A) Angiomotin-like protein 2: MRTLEDSSGTVLHRLIQAQLRYGNLTETRTLLAIQQQALRGGAGTGGTGSPQASLEILAPEDSQVLQQATRQEPQGQEHQGGENHLAENTLYRLCPQPSKGEELPTYEEAKAHSQYYAAQQAGTRPHAGDRDPRGAPGGSRRQDEALRELRHGHVRSLSERLLQLSLERNGARAPSHMSSSHSFPQLARNQQGPPLRGPPAEGPESRGPPPQYPHVVLAHETTTAVTDPRYRARGSPHFQHAEVRILQAQVPPVFLQQQQQYQYLQQSQEHPPPPHPAALGHGPLSSLSPPAVEGPVSAQASSATSGSAHLAQMEAVLRENARLQRDNERLQRELESSAEKAGRIEKLESEIQRLSEAHESLTRASSKREALEKTMRNKMDSEMRRLQDFNRDLRERLESANRRLASKTQEAQAGSQDMVAKLLAQSYEQQQEQEKLEREMALLRGAIEDQRRRAELLEQALGNAQGRAARAEEELRKKQAYVEKVERLQQALGQLQAACEKREQLELRLRTRLEQELKALRAQQRQAGAPGGSSGSGGSPELSALRLSEQLREKEEQILALEADMTKWEQKYLEERAMRQFAMDAAATAAAQRDTTLIRHSPQPSPSSSFNEGLLTGGHRHQEMESRLKVLHAQILEKDAVIKVLQQRSRRDPGKAIQGSLRPAKSVPSVFAAAAAGTQGWQGLSSSERQTADAPARLTTDRAPTEEPVVTAPPAAHAKHGSRDGSTQTEGPPDSTSTCLPPEPDSLLGCSSSQRAASLDSVATSRVQDLSDMVEILI", "values": [
      {"measurement": "Experimental % binding", "result": 133, "unit": "%"}
    ]},
    {"molecule": "AMOTL2 I16: AMOTL2, I16 to alanine (protein, UniProt Q9Y2J4 1-779, looked up, variant I16A) Angiomotin-like protein 2: MRTLEDSSGTVLHRLAQEQLRYGNLTETRTLLAIQQQALRGGAGTGGTGSPQASLEILAPEDSQVLQQATRQEPQGQEHQGGENHLAENTLYRLCPQPSKGEELPTYEEAKAHSQYYAAQQAGTRPHAGDRDPRGAPGGSRRQDEALRELRHGHVRSLSERLLQLSLERNGARAPSHMSSSHSFPQLARNQQGPPLRGPPAEGPESRGPPPQYPHVVLAHETTTAVTDPRYRARGSPHFQHAEVRILQAQVPPVFLQQQQQYQYLQQSQEHPPPPHPAALGHGPLSSLSPPAVEGPVSAQASSATSGSAHLAQMEAVLRENARLQRDNERLQRELESSAEKAGRIEKLESEIQRLSEAHESLTRASSKREALEKTMRNKMDSEMRRLQDFNRDLRERLESANRRLASKTQEAQAGSQDMVAKLLAQSYEQQQEQEKLEREMALLRGAIEDQRRRAELLEQALGNAQGRAARAEEELRKKQAYVEKVERLQQALGQLQAACEKREQLELRLRTRLEQELKALRAQQRQAGAPGGSSGSGGSPELSALRLSEQLREKEEQILALEADMTKWEQKYLEERAMRQFAMDAAATAAAQRDTTLIRHSPQPSPSSSFNEGLLTGGHRHQEMESRLKVLHAQILEKDAVIKVLQQRSRRDPGKAIQGSLRPAKSVPSVFAAAAAGTQGWQGLSSSERQTADAPARLTTDRAPTEEPVVTAPPAAHAKHGSRDGSTQTEGPPDSTSTCLPPEPDSLLGCSSSQRAASLDSVATSRVQDLSDMVEILI", "values": [
      {"measurement": "Experimental % binding", "result": 32, "unit": "%"}
    ]},
    {"molecule": "AMOTL2 L20: AMOTL2, L20 to alanine (protein, UniProt Q9Y2J4 1-779, looked up, variant L20A) Angiomotin-like protein 2: MRTLEDSSGTVLHRLIQEQARYGNLTETRTLLAIQQQALRGGAGTGGTGSPQASLEILAPEDSQVLQQATRQEPQGQEHQGGENHLAENTLYRLCPQPSKGEELPTYEEAKAHSQYYAAQQAGTRPHAGDRDPRGAPGGSRRQDEALRELRHGHVRSLSERLLQLSLERNGARAPSHMSSSHSFPQLARNQQGPPLRGPPAEGPESRGPPPQYPHVVLAHETTTAVTDPRYRARGSPHFQHAEVRILQAQVPPVFLQQQQQYQYLQQSQEHPPPPHPAALGHGPLSSLSPPAVEGPVSAQASSATSGSAHLAQMEAVLRENARLQRDNERLQRELESSAEKAGRIEKLESEIQRLSEAHESLTRASSKREALEKTMRNKMDSEMRRLQDFNRDLRERLESANRRLASKTQEAQAGSQDMVAKLLAQSYEQQQEQEKLEREMALLRGAIEDQRRRAELLEQALGNAQGRAARAEEELRKKQAYVEKVERLQQALGQLQAACEKREQLELRLRTRLEQELKALRAQQRQAGAPGGSSGSGGSPELSALRLSEQLREKEEQILALEADMTKWEQKYLEERAMRQFAMDAAATAAAQRDTTLIRHSPQPSPSSSFNEGLLTGGHRHQEMESRLKVLHAQILEKDAVIKVLQQRSRRDPGKAIQGSLRPAKSVPSVFAAAAAGTQGWQGLSSSERQTADAPARLTTDRAPTEEPVVTAPPAAHAKHGSRDGSTQTEGPPDSTSTCLPPEPDSLLGCSSSQRAASLDSVATSRVQDLSDMVEILI", "values": [
      {"measurement": "Experimental % binding", "result": 98, "unit": "%"}
    ]}
  ]
}
